Test results: PMC11742315, “Identification of a staphylococcal dipeptidase involved in the production of human body odor” (The Journal of Biological Chemistry, 2024)

Columns and labels:
Assay in all cases: purified protein
N[C@@H](CS)C(=O)NCC(=O)O = details: Mn2+-bound enzyme, 50 mM potassium phosphate, 200 mM NaCl, 37 °C
[1] = system: CCCC(C)(CCO)SC[C@H](N)C(=O)NCC(=O)O; details: Mn2+-bound enzyme; 0.1 M Tris-HCl (pH 80 [sic]); coupled with ShPatB
purified protein = substrate: CCCC(C)(CCO)SC[C@H](N)C(=O)NCC(=O)O; details: 0.1 M Tris-HCl (pH 80 [sic]), coupled with ShPatB

With ShPepV (Staphylococcus hominis) the Km (N[C@@H](CS)C(=O)NCC(=O)O) was 2190 ± 220 µM, the kcat (N[C@@H](CS)C(=O)NCC(=O)O) was 405 ± 23.6 s⁻¹ and the kcat/Km (N[C@@H](CS)C(=O)NCC(=O)O) was 186000 ± 21800 M⁻¹ s⁻¹. It also gave a Km [1] of 1290 ± 40 µM, a kcat [1] of 3.41 ± 0.07 s⁻¹ and a kcat/Km [1] of 2640 ± 100 M⁻¹ s⁻¹.

B1: SaPepV (Staphylococcus aureus subsp. aureus USA300) (protein)
chain: MWKEKVQQYEDQIINDLKGLLAIESVRDDAKASEDAPVGPGPRKALDYMYEIAHRDGFTTHDVDHIAGRIEAGKGNDVLGILCHVDVVPAGDGWDSNPFEPVVTEDAIIARGTLDDKGPTIAAYYAIKILEDMNVDWKKRIHMIIGTDEESDWKCTDRYFKTEEMPTLGFAPDAEFPCIHGEKGITTFDLVQNKLTEDQDEPDYELITFKSGERYNMVPDHAEARVLVKENMTDVIQDFEYFLEQNHLQGDSTVDSGILVLTVEGKAVHGMDPSIGVNAGLYLLKFLASLNLDNNAQAFVAFSNRYLFNSDFGEKMGMKFHTDVMGDVTTNIGVITYDNENAGLFGINLRYPEGFEFEKAMDRFANEIQQYGFEVKLGKVQPPHYVDKNDPFVQKLVTAYRNQTNDMTEPYTIGGGTYARNLDKGVAFGAMFSDSEDLMHQKNEYITKKQLFNATSIYLEAIYSLCVEE
B1 showed a Km (purified protein; Mn2+-bound enzyme) of 3340 ± 340 µM.

B2: CgTpdA (Corynebacterium glaucum) (protein)
chain: MSNDNAVNSAVTSTDFTFSPNRERIFQELAELISHYSPHSMPEHAATHEEAAKWVTAKLEELGLDVTRHPTVDDADTIIGVKEPVGDAPTVLLYSHYDVVPAQNPAVWTNDPLELDERGGRWYGRGAADCKGNVIMHLAALRMVQENGGTDLGIKVVVEGSEELGGEDGLGKLIDANPELFTADVIFIGDGGNVAVGIPTLTTHLRGGAQLRIKVDTLEGPVHSGGWGGAAPDAAHALIRISDSFFDEHGRTTIEGVDTTAKWEGDPYDRETFRKDARVLDGVQLLGTVDDEPADMVWARPAITVIGFTSVPVKDATNIVNSTAEAQFNLRVPAPQSAAEVAKKVEEQIYARAPWGAKVEVSVTGVNEPFSTDPNGPAVQHFGKCMQDAYGAERLTVVGTGGSIPLTVTLQKHFPDAEFALYGVADPAANIHGIDESVDPTEIEHVAIAEATFLLTYGK
In the case of B2, the Km (purified protein) is reported as 480 ± 30 µM.
